The values that follow come from US20240400717A1, “Antibody Binding to CHI3L1 for Treating Cancer” (National Cheng Kung University, priority 2021, published 2024).

In assay [1] the target is human chitotriosidase-1 (CHIT1) (Homo sapiens, UniProt Q13231). Description: ELISA binding specificity, CHIT1. Particulars: mAbs 1 μg/ml; coated protein 2.5 μg/ml to 0 μg/ml. On the procedure:
(§1) Four selected clones of mAbs including R4-4, R4-54, 293R3-2, and 293R3-4 were further tested for blocking effect on human colorectal (HCT116, SW480, and SW620) and pancreatic cancer cell lines (PANC1 and MiaPaCa-2). […] P values were determined by one-way ANOVA. * P<0.05, ** P<0.01, *** P<0.001, **** P<0.0001. For binding specificity examination, we further coated different concentration of recombinant CHI3L1 protein, and two other major proteins in chitinase family including human chitotriosidase-1 (CHIT1) and CHI3L2 from 2.5 μg/ml to 0 μg/ml, on 96-well plate.

Another assay relates to PANC1 and H460 cells. The assay can be described thus: CCK-8 cell viability assay with rCHI3L1. It is filed as cell-based, human. Particulars: PANC1 and H460, rCHI3L1 with mAbs at two doses. On the procedure:
PI3K/AKT/mTOR signaling pathway is important in regulating cell proliferation, survival and migration (Xu et al. 2020). Therefore, we investigated the effect of four selected mAbs on cancer cell behaviors. Human pancreatic (PANC1) and large cell cancer of the lung (H460) cells were treated with rCHI3L1 only or together with mAbs at two doses, and then subjected to cell counting kit 8 (CCK-8) cell viability assay. […] P values were determined by one-way ANOVA. * P<0.05, ** P<0.01, *** P<0.001, **** P<0.0001.
Background: Tetrazolium dyes change colour on reduction, which living cells bring about.

Assay [2] concerns the target recombinant CHI3L1 protein (Homo sapiens, UniProt P36222). Description: ELISA binding specificity, CHI3L1. Particulars: mAbs 1 μg/ml; coated protein 2.5 μg/ml to 0 μg/ml. The procedure:
as §1

The subject of assay [3] is MiaPaCa-2, SW480 and A549 cells. The assay can be described thus: Wound healing assay with rCHI3L1. It is filed as cell-based, human. Conditions: MiaPaCa-2, SW480, A549; 16 hours. On the procedure: Since AKT regulates cell migration, we further performed wound healing assay to examine the anti-migratory effect of mAbs on pancreatic (MiaPaCa-2), colorectal (SW480), and lung (A549) cells. We observed that after 16 hours, the wound closure area was increased compared to that in control groups upon rCHI3L1 treatment. […] Taken together, our fully human monoclonal CHI3L1 neutralizing antibody clones R4-4, R4-54, 293R3-2, and 293R3-4 blocked the CHI3L1 induced signaling and cell behaviors of tumor cells. The data was presented as mean±S.D. (n=3 per group). P values were determined by one-way ANOVA. * P<0.05, ** P<0.01, *** P<0.001, **** P<0.0001.

A further assay has as its system MiaPaCa cells. The assay can be described thus: MiaPaCa orthotopic NOD-SCID mice model. Particulars: for level of CHI3L1 in intratumoral region and plasma: end of experiment; for infiltrated macrophages in tumor sections (F4/80+, CD206+): immunofluorescence, 5 mg/kg i.v.; for angiogenesis indicated by CD31 expression / tumor size: mAb 5 mg/kg i.v., gemcitabine 50 mg/kg i.p.; for tumor size: Day 7, 14, 21, 28, sacrificed day 34.

The next assay deals with T1, hCHI3L1/flag-His (Homo sapiens, UniProt P36222).
T1 construct: human CHI3L1 extracellular domain fused with flag and His tag
Description: In tandem epitope binning on Octet Red96. Conditions: for epitope cluster: among four anti-CHI3L1 mAbs; for competitive binding class, CHI3L1 293R3-2: paired with CHI3L1 293R3-2; for Epitope Binning Heat Map value, CHI3L1 293R3-2: paired with CHI3L1 293R3-2, 100 nM each; for competitive binding class, CHI3L1 293R3-4: paired with CHI3L1 293R3-4; for Epitope Binning Heat Map value, CHI3L1 293R3-4: paired with CHI3L1 293R3-4, 100 nM each; for competitive binding class, CHI3L1 R4-4: paired with CHI3L1 R4-4; for Epitope Binning Heat Map value, CHI3L1 R4-4: paired with CHI3L1 R4-4, 100 nM each; for competitive binding class, CHI3L1 R4-54: paired with CHI3L1 R4-54; for Epitope Binning Heat Map value, CHI3L1 R4-54: paired with CHI3L1 R4-54, 100 nM each. It is filed as binding. The procedure: In order to know the epitopic coverage for those four antibodies to increase the success of therapeutic CHI3L1 antibody development, epitope binning is used to characterize the binding site of mAbs to the corresponding antigen and summarized in the Table 4. In epitope binning, mAbs specific to the same target protein are tested pairwise against all mAbs in a set to assess whether they block one another's binding to a specific site of the antigen or not. The mAbs that block binding to the same epitope are “binned” together. mAbs within the same bin often function similarly, so epitope bins can narrow down the choices to fewer candidates for investigators to choose from. The in tandem epitope binning assay conducted on Octet Red96 comprised a five-step binding cycle; 1) a buffer baseline was established for 30 sec, 2) 100 nM hCHI3L1/flag-His was captured for 5 min, 3) 100 nM mAb array was loaded to saturate the captured antigen for 10 min, 4) 100 nM of the test mAb was bound for 5 min, and 5) the capture surfaces were regenerated for 30 sec. Anti-His surfaces were regenerated with 10 mM glycine pH 1.7. Raw data was processed using ForteBio's Data Analysis HT Software 11.1 and the antibody pairs were assessed for competitive binding. Additional binding by the second antibody indicates an unoccupied epitope (non-competitor, marked as *c in Table 4), while no binding indicates epitope blocking (competitor, marked as *b in Table 4) and self-competing antibodies were marked as *a in Table 4. Among four anti-CHI3L1 mAbs, there are two epitope clusters.
In general terms: Biolayer interferometry detects binding as a change in optical thickness at a sensor tip.

In a further assay the target is T2, CHI3L2 (Homo sapiens, UniProt Q15782).
T2 sequence (Q15782 27-390): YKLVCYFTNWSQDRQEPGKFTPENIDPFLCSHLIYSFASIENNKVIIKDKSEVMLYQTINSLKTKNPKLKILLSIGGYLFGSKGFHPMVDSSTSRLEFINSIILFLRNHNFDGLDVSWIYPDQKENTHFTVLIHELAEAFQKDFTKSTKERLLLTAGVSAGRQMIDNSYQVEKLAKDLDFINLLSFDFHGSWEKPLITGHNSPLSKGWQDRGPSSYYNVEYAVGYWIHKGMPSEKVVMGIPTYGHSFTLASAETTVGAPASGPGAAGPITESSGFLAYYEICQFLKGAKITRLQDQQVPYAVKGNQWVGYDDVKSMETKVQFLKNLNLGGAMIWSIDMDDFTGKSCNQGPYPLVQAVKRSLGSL
The assay can be described thus: ELISA binding specificity, CHI3L2. Particulars: mAbs 1 μg/ml; coated protein 2.5 μg/ml to 0 μg/ml. The procedure: as §1
On the technique in general: An ELISA detects its analyte on a solid surface through an enzyme-linked reagent.

T1 sequence (P36222 22-383): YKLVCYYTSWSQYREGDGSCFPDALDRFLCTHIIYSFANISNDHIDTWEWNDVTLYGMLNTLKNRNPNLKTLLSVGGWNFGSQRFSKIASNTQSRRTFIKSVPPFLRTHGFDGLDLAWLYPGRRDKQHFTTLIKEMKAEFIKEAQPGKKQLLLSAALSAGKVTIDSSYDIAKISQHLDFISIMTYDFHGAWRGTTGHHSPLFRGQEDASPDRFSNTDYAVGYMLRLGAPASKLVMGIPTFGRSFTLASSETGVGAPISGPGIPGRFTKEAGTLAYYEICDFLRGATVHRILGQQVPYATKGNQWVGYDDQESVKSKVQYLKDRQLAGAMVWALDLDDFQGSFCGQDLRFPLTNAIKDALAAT
Sequence of recombinant CHI3L1 protein (P36222 22-383): as above
Sequence of human chitotriosidase-1 (CHIT1) (Q13231 22-466): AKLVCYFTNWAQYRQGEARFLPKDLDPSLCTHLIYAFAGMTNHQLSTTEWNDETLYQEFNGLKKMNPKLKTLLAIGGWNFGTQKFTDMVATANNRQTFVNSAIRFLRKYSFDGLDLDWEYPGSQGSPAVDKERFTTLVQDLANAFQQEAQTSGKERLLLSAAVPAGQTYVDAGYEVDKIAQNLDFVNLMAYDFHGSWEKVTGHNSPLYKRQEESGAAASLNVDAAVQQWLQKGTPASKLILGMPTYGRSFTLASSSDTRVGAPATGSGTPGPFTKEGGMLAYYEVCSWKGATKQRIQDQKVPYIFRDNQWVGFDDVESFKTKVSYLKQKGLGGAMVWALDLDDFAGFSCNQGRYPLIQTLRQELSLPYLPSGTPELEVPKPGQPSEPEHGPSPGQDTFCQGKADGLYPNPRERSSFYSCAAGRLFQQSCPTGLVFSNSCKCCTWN
Description for MiaPaCa cells: Specifically, experimental design of tumor growth inhibition in vivo. MiaPaCa cells (5×10^6) were injected into pancreas of NOD-SCID mice at Day 0. […] Mice were sacrificed on day 34. […] Since fibrosis and angiogenesis are two major issues during tumor progression, we compared the fibrosis and angiogenesis level within each groups.

B1: 293R3-2: fully human anti-CHI3L1 IgG1 mAb, Table 1 No. 2; heavy chain SEQ ID NO: 65, light chain SEQ ID NO: 66 (antibody, listed as Homo sapiens)
VH: QVQLQESGPGLVEPSGTLSLTCAVSGGSISSSNWWSWVRQHPGKGLEWIGEIYHSGSTNYNPSLRSRVTISVDKSKNQFSLELSSVTAADTAVYYCAGDQRMEDDAFDIWGQGTMVTVSS
light: QSALTQPASVSGSPGQSITISCTGTSSDVGGYNYVSWYQQHPGKAPKLMIYDVSNRPSGVSNRFSGSKSGNTASLTISGLQAEDEADYYCSSYTSSSTLYVFGTGTKVTVLGQPKANPTVTLFPPSSEELQANKATLVCLISDFYPGAVTVAWKADGSPVKAGVETTKPSKQSNNKYAASSYLSLTPEQWKSHRSYSCQVTHEGSTVEKTVAPTECS
Turning to B1, the “binding specificity: recognition of CHIT1” value in assay [1] is “no other chitinase proteins”. For the same molecule, in the assay with PANC1 and H460 cells, the “cell viability (CCK-8)” value was “reduced the viability”. In assay [2], the “binding specificity: recognition of CHI3L1” value was “specifically recognized CHI3L1”. In assay [3], the “cell migration ability induced by rCHI3L1 (wound closure area)” value was “significantly reduced cell migration ability”. Moreover, in the assay with MiaPaCa cells, the “level of CHI3L1 in intratumoral region and plasma” value was “lower than IgG control group”; the “infiltrated macrophages in tumor sections (F4/80+, CD206+)” value is reported as “more macrophages other than M2 phenotype”; the “angiogenesis indicated by CD31 expression” value is listed as “decreased in every treatment groups”; the tumor size entry is “smaller than IgG control group”. Further, in the assay with hCHI3L1/flag-His, the epitope cluster entry was “unidirectional blocking results”; the “competitive binding class, CHI3L1 293R3-2” value is “*^a”; the “Epitope Binning Heat Map value, CHI3L1 293R3-2” value was 0.2110; the “competitive binding class, CHI3L1 293R3-4” value is given as “*^c”. Moreover, in the assay with hCHI3L1/flag-His, the “Epitope Binning Heat Map value, CHI3L1 293R3-4” value turned out to be 0.6303; the “competitive binding class, CHI3L1 R4-4” value is listed as “*^c”; the “Epitope Binning Heat Map value, CHI3L1 R4-4” value is recorded as 0.7478; the “competitive binding class, CHI3L1 R4-54” value is reported as “*^c”. Also, in the assay with hCHI3L1/flag-His, the “Epitope Binning Heat Map value, CHI3L1 R4-54” value came to 0.7349. In the assay with CHI3L2, the “binding specificity: recognition of CHI3L2” value is given as “no other chitinase proteins”.

B2: 293R3-4: fully human anti-CHI3L1 IgG1 mAb, Table 1 No. 4; heavy chain SEQ ID NO: 73, light chain SEQ ID NO: 74 (antibody, listed as Homo sapiens)
VH: EVQLVQSGAEVKKPGATVKISCKVSGYSFTDYYIHWVQQAPGKGLEWMGFVDPENGETIYAEKFQGRVTITADTSTDTAYMELSSLRSDDTAVYYCATDRDYDDSSGNAFDIWGQGTMVTVSS
light: SYELTQPPSVSVSTGQTATITCSGDILGDEYAFWYQQKAGQSPVLVIYLDTRRPSGIPERFSGSNSGDTATLTISETQPVDEAVYFCQGWDSSTALYVFGTGTKVTVLGQPKANPTVTLFPPSSEELQANKATLVCLISDFYPGAVTVAWKADGSPVKAGVETTKPSKQSNNKYAASSYLSLTPEQWKSHRSYSCQVTHEGSTVEKTVAPTECS
Take B2: the “binding specificity: recognition of CHIT1” value in assay [1] is “no other chitinase proteins”. The “cell viability (CCK-8)” value with PANC1 and H460 cells is reported as “reduced the viability”. The “binding specificity: recognition of CHI3L1” value in assay [2] is “specifically recognized CHI3L1”. The “cell migration ability induced by rCHI3L1 (wound closure area)” value in assay [3] is given as “significantly reduced cell migration ability”. Moreover, in the assay on MiaPaCa cells, the “level of CHI3L1 in intratumoral region and plasma” value was “lower than IgG control group”; the “infiltrated macrophages in tumor sections (F4/80+, CD206+)” value is reported as “more macrophages other than M2 phenotype”; the “angiogenesis indicated by CD31 expression” value is on record as “decreased in every treatment groups”; the tumor size result is reported as “smaller than IgG control group”. In the assay with hCHI3L1/flag-His, the epitope cluster entry is “unidirectional blocking results”; the “competitive binding class, CHI3L1 293R3-2” value was “*^b”; the “Epitope Binning Heat Map value, CHI3L1 293R3-2” value is on record as 0.1221; the “competitive binding class, CHI3L1 293R3-4” value is “*^a”. Further, in the assay with hCHI3L1/flag-His, the “Epitope Binning Heat Map value, CHI3L1 293R3-4” value was determined as 0.3014; the “competitive binding class, CHI3L1 R4-4” value is listed as “*^c”; the “Epitope Binning Heat Map value, CHI3L1 R4-4” value is 1.1089; the “competitive binding class, CHI3L1 R4-54” value is listed as “*^c”. The “Epitope Binning Heat Map value, CHI3L1 R4-54” value with hCHI3L1/flag-His came out at 0.4217. For the same molecule, the “binding specificity: recognition of CHI3L2” value with CHI3L2 was “no other chitinase proteins”.
